Test results as given in US20160280798A1, “ALK ANTIBODIES, CONJUGATES, AND CHIMERIC ANTIGEN RECEPTORS, AND THEIR USE” (The United States of America, as Represented by the …, priority 2013, published 2016).
Where two headings read alike, the source gives them in different places.

B1: ALK48 monoclonal antibody (antibody, IgG2a, V domains shown)
VH: QVQLQQSGAELVKPGASVKISCKASGYAFSSYWMNWVKQRPGKGLEWIGQIYPGDGDTTYNGKFKGKATLTADKSSSTVYMQLNSLTSEDSAVYFCVRYYYGSSGYFDYWGQGTTLTVSS
VL: DVQMIQTPDSLAVSLGQRATISCRASESVDNYGISFMHWYQQKPGQSPKLLIYRASNLESGIPARFSGSGSRTDFTLTINPVETDDVATYYCQQNNKDPPTFGGGTKLEIK
notes: Murine hybridoma antibody; also called ALK48B; ALK MAb 48
B2: ALK53 monoclonal antibody (antibody, V domains shown)
VH: DVQLQESGPVLVKTGASVKMSCTASGYTFTDHFMDWVKQSHGKSLEWIGSLNPYSGGTSYNQKFKGKATLTVDKSSSTAYMELNSLTSVDSAVYYCARHNWGAYFDYWGQGTTLTVSS
VL: DIVMTQAAPSVPVTPGESVSISCRSSKSLLHSNGNTYLYWFLQRPGQSPQRLIYYMSNLASGVPDRFSGRGSGTDFTLRISRVEAEDVGVYYCMQGLEDPYTFGGGTKLEIK
notes: Murine hybridoma antibody; also called ALK53A; ALK MAb 53
B3: ALK58 monoclonal antibody (antibody, V domains shown)
VH: ALQLQQSGAELVRPGASVTLSCKASGYTFTDYEMHWVKQTPVHGLEWIGAIDPETGGTAYNQKFEGKAILTADKSSSTAYMELRSLTSEDSPVYYCARRRYYGSSSFDYWGQGTTLTVSS
VL: DVQMIQTPSSLSASLGDRVTISCRASQDIGNYLNWYQQKPDGTVKLLIYYTSRLHSGVPSRFSGSGSGTEYSLTISNLEQEDIATYFCQQGSALPPTFGGGTKLEIN
notes: Murine hybridoma antibody; also called ALK58A; ALK MAb 58
B4: ALK15A: anti-ALK monoclonal antibody, IgG2b; VH SEQ ID NO: 1, VL SEQ ID NO: 2 (antibody, V domains shown)
VH: DVKLQESGPGLVAPSQSLSITCTVSGFSLTSYAVSWVRQPPGKGLEWLGIIWSGGATNYNSALKSRLSISKDNSKSQVFLKMNGLQTDDTARYYCAREHYYGSSAMDYWGQGASITVSS
VL: GIVMTQSPLSLPVSLGDQASISCRSSQSIVHSYGNTYLFWYLQKPGQSPKLLIYRVSNRFSGVPDRFSGSGSGTNFTLKISRVEAEDMGVYYCFQGTHVPYTFGGGTKLEIK
modifications: Antibody variable domain sequence
B5: ALK48B: anti-ALK monoclonal antibody, IgG2a; VH SEQ ID NO: 3, VL SEQ ID NO: 4 (antibody, V domains shown)
VH: B1 VH
VL: B1 VL
modifications: Antibody variable domain sequence
B6: ALK58A: anti-ALK monoclonal antibody; VH SEQ ID NO: 7, VL SEQ ID NO: 8 (antibody, V domains shown)
VH: B3 VH
VL: B3 VL
modifications: Antibody variable domain sequence
B7: ALK53A: anti-ALK monoclonal antibody; VH SEQ ID NO: 5, VL SEQ ID NO: 6 (antibody, V domains shown)
VH: B2 VH
VL: B2 VL
modifications: Antibody variable domain sequence
B8: ALK48: CAR construct, long format: SP-murine ALK48 scFv-CH2CH3 spacer; signaling domains not stated for the in vitro tests (antibody, V domains shown)
VH: B1 VH
VL: B1 VL
B9: ALK48SH-28z: CAR, SEQ ID NO: 50; murine ALK48 scFv, no spacer (short form), 28z (protein)
chain: LLVTSLLLCELPHPAFLLIPDTQVQLQQSGAELVKPGASVKISCKASGYAFSSYWMNWVKQRPGKGLEWIGQIYPGDGDTTYNGKFKGKATLTADKSSSTVYMQLNSLTSEDSAVYFCVRYYYGSSGYFDYWGQGTTLTVSSGGGGSGGGGSGGGGSDVQMIQTPDSLAVSLGQRATISCRASESVDNYGISFMHWYQQKPGQSPKLLIYRASNLESGIPARFSGSGSRTDFTLTINPVETDDVATYYCQQNNKDPPTFGGGTKLEIKRAAAIEVMYPPPYLDNEKSNGTIIHVKGKHLCPSPLFPGPSKPFWVLVVVGGVLACYSLLVTVAFIIFWVRSKRSRLLHSDYMNMTPRRPGPTRKHYQPYAPPRDFAAYRSRVKFSRSADAPAYQQGQNQLYNELNLGRREEYDVLDKRRGRDPEMGGKPRRKNPQEGLYNELQKDKMAEAYSEIGMKGERRRGKGHDGLYQGLSTATKDTYDALHMQALPPR
modifications: chimeric antigen receptor sequence
notes: murine ALK48 scFv, no spacer (short form), 28z

How the values were obtained:
[1] = biological target: T1, human anaplastic lymphoma kinase (ALK) protein (human, UniProt Q9UM73 19-1620); assay: flow cytometry on tumor cell lines expressing ALK
T1 construct: Endogenous ALK on tumor cell lines (SY5Y, LAN5, KCNR, IMR32, Rh18); also called CD246; cell surface ALK
Procedure: Cell lines used in these studies were: Sy5Y, LAN5, K562, Rh18, IMR32, KCNR. Cells were cultured in RPMI-1640 supplemented with 2 mM lgln, 10 mM HEPES, Pen/Strep, (Gibco, Life Technologies, Grand Island, N.Y.) and 10% FBS (Omega Scientific, Tarzana, Calif.). Anti-ALK antibodies were produced as described previously: ALK15A (IgG2b, weak agonist, membrane proximal binding), ALK48B (IgG2a, agonist, membrane proximal binding), ALK53A, ALK58A (binds to a membrane distal epitope) (Mazot et al., Oncogene, 30, 2017-2025, 2011; Moog-Lutz et al., J Biol. Chem., 280, 26039-26048, 2005). Staining for ALK expression on tumor lines was performed as follows: 2.5 μL primary antibody (1 mg/ml conc.) per 1 million cells was added to cells on ice in FACS buffer, FB, (PBS, 0.5% BSA, 0.02% NaN3) for 20 minutes, cells were washed twice, then stained with 5 μL FITC-F(ab′)2 Fragment Goat Anti-Mouse IgG+IgM (H+L) secondary antibody (Jackson ImmunoResearch, 1 mg/ml) for 20 minutes, washed, then analyzed by flow cytometry.
As reported previously, ALK MAbs 7, 48, 53, and 58 were able to detected ALK expression on tumor cell lines by flow cytometry. The ALK-specific MAb was used to define the expression of ALK on a series of neuroblastoma call lines, and a rhabdomyosarcoma cell line. FIG. 1 illustrates that the neuroblastoma cell lines SY5Y, LAN5, KCNR, IMR32, all express cell surface ALK, as does the rhabdomyosarcoma cell line Rh18. The differences in expression were quite varied with the SY5Y staining the brightest for ALK expression. This was true when the other MAbs specific for ALK were tested as well.

ALK [2] = settings: cited from earlier work
Target sequence in this assay (Q9UM73 19-1620): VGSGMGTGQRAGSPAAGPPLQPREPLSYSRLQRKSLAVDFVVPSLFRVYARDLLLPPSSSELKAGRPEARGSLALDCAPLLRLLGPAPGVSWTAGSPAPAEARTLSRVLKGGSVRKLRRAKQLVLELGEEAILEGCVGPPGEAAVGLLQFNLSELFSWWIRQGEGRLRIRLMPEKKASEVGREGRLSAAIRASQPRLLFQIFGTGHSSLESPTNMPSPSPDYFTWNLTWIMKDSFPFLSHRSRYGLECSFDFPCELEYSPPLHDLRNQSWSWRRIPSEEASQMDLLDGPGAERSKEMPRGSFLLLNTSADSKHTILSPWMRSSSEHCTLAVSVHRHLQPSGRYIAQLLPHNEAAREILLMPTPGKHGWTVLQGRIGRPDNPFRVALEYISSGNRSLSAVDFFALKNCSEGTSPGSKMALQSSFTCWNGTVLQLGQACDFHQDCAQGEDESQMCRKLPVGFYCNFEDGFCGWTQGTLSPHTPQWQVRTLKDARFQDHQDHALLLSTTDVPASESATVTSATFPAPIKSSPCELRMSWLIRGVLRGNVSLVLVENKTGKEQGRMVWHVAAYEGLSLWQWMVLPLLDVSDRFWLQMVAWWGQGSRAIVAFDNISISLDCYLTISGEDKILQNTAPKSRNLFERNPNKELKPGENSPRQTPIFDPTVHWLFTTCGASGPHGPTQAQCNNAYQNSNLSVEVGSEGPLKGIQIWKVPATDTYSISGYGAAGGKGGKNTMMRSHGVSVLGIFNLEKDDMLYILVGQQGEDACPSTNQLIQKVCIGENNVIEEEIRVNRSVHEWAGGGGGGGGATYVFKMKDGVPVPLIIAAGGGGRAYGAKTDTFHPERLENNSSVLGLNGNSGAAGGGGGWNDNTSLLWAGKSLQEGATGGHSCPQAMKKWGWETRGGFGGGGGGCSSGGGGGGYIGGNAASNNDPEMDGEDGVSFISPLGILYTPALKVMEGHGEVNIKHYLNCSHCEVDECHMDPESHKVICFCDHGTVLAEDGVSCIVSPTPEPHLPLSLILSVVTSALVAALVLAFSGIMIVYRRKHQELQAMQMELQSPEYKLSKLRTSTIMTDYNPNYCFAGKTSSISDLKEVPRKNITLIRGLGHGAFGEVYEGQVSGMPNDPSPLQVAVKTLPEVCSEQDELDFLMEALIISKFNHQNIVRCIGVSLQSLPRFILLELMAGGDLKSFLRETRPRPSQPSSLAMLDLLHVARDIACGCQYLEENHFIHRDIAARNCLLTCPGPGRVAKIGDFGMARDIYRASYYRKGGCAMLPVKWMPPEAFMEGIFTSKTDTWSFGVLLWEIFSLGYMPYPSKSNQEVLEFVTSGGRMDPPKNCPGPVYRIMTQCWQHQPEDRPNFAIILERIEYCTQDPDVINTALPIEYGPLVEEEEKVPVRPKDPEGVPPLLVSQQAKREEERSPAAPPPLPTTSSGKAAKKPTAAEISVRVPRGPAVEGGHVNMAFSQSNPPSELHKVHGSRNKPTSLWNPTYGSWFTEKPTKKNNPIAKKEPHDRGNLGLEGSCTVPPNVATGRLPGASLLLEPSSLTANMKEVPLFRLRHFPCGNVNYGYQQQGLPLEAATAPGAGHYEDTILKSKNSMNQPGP

[3] = biological target: T2, extracellular domain of ALK (Homo sapiens, UniProt Q9UM73); settings: cited from earlier work
T2 construct: monoclonal antibodies (mAb) against the extracellular domain of ALK

ALK [4] = settings: flow cytometry; as reported previously; cited from earlier work
Target sequence in this assay (Q9UM73 19-1038 limits assumed): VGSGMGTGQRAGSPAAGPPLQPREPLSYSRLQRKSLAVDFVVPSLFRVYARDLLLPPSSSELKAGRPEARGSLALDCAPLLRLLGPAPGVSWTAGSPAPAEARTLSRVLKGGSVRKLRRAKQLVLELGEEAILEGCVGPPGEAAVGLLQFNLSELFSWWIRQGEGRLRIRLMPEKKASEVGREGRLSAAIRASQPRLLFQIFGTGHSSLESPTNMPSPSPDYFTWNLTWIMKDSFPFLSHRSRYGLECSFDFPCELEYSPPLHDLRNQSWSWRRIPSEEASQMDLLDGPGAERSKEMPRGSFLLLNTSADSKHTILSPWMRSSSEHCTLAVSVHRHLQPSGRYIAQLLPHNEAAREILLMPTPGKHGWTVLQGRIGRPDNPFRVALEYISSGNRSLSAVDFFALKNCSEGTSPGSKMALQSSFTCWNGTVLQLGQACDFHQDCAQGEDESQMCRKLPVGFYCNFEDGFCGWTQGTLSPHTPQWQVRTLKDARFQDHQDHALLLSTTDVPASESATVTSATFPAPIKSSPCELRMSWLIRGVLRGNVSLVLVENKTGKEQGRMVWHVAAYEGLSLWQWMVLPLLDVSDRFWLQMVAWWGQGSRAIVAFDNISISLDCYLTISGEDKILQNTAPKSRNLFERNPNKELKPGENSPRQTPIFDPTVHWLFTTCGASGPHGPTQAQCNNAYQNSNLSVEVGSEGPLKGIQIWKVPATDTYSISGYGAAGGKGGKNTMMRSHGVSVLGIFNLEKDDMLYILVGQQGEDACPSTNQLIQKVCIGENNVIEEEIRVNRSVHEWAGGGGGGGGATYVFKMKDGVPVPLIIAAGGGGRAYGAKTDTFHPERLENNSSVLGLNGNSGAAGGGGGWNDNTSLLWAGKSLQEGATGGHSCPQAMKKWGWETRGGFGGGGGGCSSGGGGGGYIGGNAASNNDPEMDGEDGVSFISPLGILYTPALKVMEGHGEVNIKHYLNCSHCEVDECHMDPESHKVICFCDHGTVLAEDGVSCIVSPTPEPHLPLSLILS

[5] = tested on: tumor cell lines (LAN5 SY5Y, Rh18, K562); assay: Cytokine release on co-culture of CAR T cells with tumor cell lines; assay type: cell-based; settings: 24-hour co-culture with tumor cell lines; FIG. 6
Procedure: FIGS. 6A-6C show a series of graphs illustrating cytokine activity of the disclosed CAR T Cells. PBMC were transduced with the indicated CAR constructs, and incubated with tumor targets (LAN5 SY5Y, Rh18, K562 as indicated in legend), and supernatants collected after 24 hours and tested for the presence of cytokine by a MesoScale mutli-analyte detection system. […] Controls include mock transduced cells, tumor only, and T cells without tumor target, as indicated.
T cell cytolytic function was assayed in standard 51Cr release assays as described elsewhere (Haso et al., (2013) Blood, 121, 1165-1174). Cytokine release was assayed by co-incubating 25,000 T cells with 25,000 tumor cell targets in cRPMI. At 24 hours culture media was collected and cytokines measured (Human TH1/TH2 multiplex, Meso Scale Discovery, Rockville, Md.).

[6] = tested on: ALK+ human neuroblastoma cells (SY5Y cells); assay: SY5Y neuroblastoma xenograft assay; assay type: in vivo; settings: transduced T cells given on day 13, no treatment on day 6
Procedure: NSG mice were injected s.c. on day 0 with 5×10^6 human neuroblastoma cells (SY5Y in vivo passaged and re-cultured as a new line, SY5Y.P1). On day 6, 5.1×10^6 ALK48-28z CAR(+)ve T cells were injected r.o. (34% positive/15 million total). CAR-treated mice were given a cocktail of (0.9 μg IL-7+6.6 μg M25 anti-IL7 mAb) i.p. every 2-3 days, for the time period indicated above. Survival statistics were calculated using Log-rank (Mantel-Cox) analysis (Prism Software, Inc.). On day 13, 3.2×10^6 ALK48SH-trasnduced T cells were given. The experiment was ended on day 64 due to graft vs host disease-like symptoms, standardly encountered in the NSG model system.
NOD scid gamma (NSG) mice were inoculated with ALK+ human neuroblastoma cells (SY5Y cells). On day 6, the mice were treated with human T cells transduced to express the murine ALK specific ALK48-28z CAR (SEQ ID NO: 49, long form CAR with CH2CH3 spacer domain) or mock treated T cells. […] In a separate set of mice, on day 13 post inoculation (and without any treatment on day 6), the mice were treated with ALK48SH-28z (SEQ ID NO: 50, short form CAR without spacer domain) transduced T cells.
The mice also received biweekly injections of IL-7 complexed to anti-IL7 antibody to promote T cell persistence. […] The other two groups all died of tumor.

T1 sequence (Q9UM73 19-1620 limits assumed): as the sequence (Q9UM73 19-1620) above
T2 sequence (Q9UM73 19-1038 limits assumed): as the sequence (Q9UM73 19-1038 limits assumed) above

Molecule	binding result [1]	agonist activity on ALK (ALK [2])	location of epitope on ALK [3]	detection of ALK expression on tumor cell lines (ALK [4])	also measured
B1	binds	–	–	–	–
B2	binds	–	–	–	–
B3	binds	–	–	–	–
B4	–	weak agonist	membrane proximal binding	–	–
B5	–	agonist	membrane proximal binding	able to detected ALK expression	phosphorylation of the receptor upon binding (ALK [2]): induce phosphorylation; agonist activity on ALK (ALK [2]; listed as mAb 48): activating; form of ALK bound (220 kD / 140 kDa cleaved) [3]: both; location of epitope on ALK ([3]; listed as clone 48): closer to the cell surface membrane
B6	–	activating	membrane distal epitope	able to detected ALK expression	phosphorylation of the receptor upon binding (ALK [2]): induce phosphorylation; form of ALK bound (220 kD / 140 kDa cleaved) [3]: only the 220 KDa form; location of epitope on ALK ([3]; listed as clone 58): more distal cleaved region
B7	–	–	–	able to detected ALK expression	–
B8	–	–	–	–	IFN-gamma production [5]: Strong; IL-2 production [5]: lower levels; TNF-alpha production [5]: lower levels
B9	–	–	–	–	effect on survival [6]: no effect on survival
